The conditions of this data set: Homo sapiens, pH 7.5, Thermal, CD, Tris-HCl 20mM, whole UniProt chain shown.

From FireProtDB (doi:10.3390/ijms21030752) come the findings set out here.

B1: Guanylyl cyclase-activating protein 1 wild type, P43080 (protein)
chain: MGNVMEGKSVEELSSTECHQWYKKFMTECPSGQLTLYEFRQFFGLKNLSPSASQYVEQMFETFDFNKDGYIDFMEYVAALSLVLKGKVEQKLRWYFKLYDVDGNGCIDRDELLTIIQAIRAINPCSDTTMTAEEFTDTVFSKIDVNGDGELSLEEFIEGVQKDQMLLDTLTRSLDLTRIVRRLQNGEQDEEGADEAAEAAG
As for B1, the Tm (commonly the temperature at which the thermal transition is half complete) reads like this: (KCL 150 mM) 49.8 °C; (KCL and Mg2+ 150 mM and 1 mM) 50.3 °C.
